Data from the supplement of paper PMC9112550, “Optimization of the antimicrobial peptide Bac7 by deep mutational scanning” (BMC Biology, 2022).

test system: Escherichia coli TOP10; assay: shrunken log2 fold change of peptide-encoding DNA abundance (4.5 h post-induction vs induction); higher = less antimicrobial activity (less host growth inhibition); conditions: time post-induction: 4.5 h; library: site-saturation at positions 5, 18, 19, 20
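Also: peptides expressed intracellularly from a pBAD plasmid library in pooled LB shake-flask culture, induced with 0.3% L-arabinose, DNA abundance read by NGS, three biological replicates, DESeq2 with apeglm shrinkage.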

Row | Sequence | shrunken log2 fold change
1 | RRIRGRPPRLPRPRPRPGVSPRP | 0.889
2 | RRIRDRPPRLPRPRPRPMHWPRP | 0.591
3 | RRIRDRPPRLPRPRPRPRCWPRP | 0.923
4 | RRIRERPPRLPRPRPRPWDNPRP | -0.021
5 | RRIRARPPRLPRPRPRPVMQPRP | 0.305
6 | RRIRRRPPRLPRPRPRPDQNPRP | 0.327
7 | RRIRRRPPRLPRPRPRPDADPRP | 1.78
8 | RRIRFRPPRLPRPRPRPAEWPRP | 0.512
9 | RRIRCRPPRLPRPRPRPMKRPRP | -0.176
10 | RRIRPRPPRLPRPRPRPRQSPRP | 0.0298
11 | RRIRLRPPRLPRPRPRPSHWPRP | -0.0446
12 | RRIRDRPPRLPRPRPRPHWQPRP | -0.149
13 | RRIRRRPPRLPRPRPRPYHIPRP | -0.365
14 | RRIRRRPPRLPRPRPRPPCNPRP | 0.36
15 | RRIRVRPPRLPRPRPRPDQEPRP | -0.00136
16 | RRIRHRPPRLPRPRPRPHTNPRP | -0.672
17 | RRIRSRPPRLPRPRPRPSRHPRP | 0.0757
18 | RRIRLRPPRLPRPRPRPQHYPRP | -0.761
19 | RRIRNRPPRLPRPRPRPAGRPRP | 0.486
20 | RRIRYRPPRLPRPRPRPTRCPRP | 0.175
21 | RRIRQRPPRLPRPRPRPVCFPRP | -0.139
22 | RRIRVRPPRLPRPRPRPSDCPRP | 0.234
23 | RRIRSRPPRLPRPRPRPYLHPRP | -0.757
24 | RRIRLRPPRLPRPRPRPWKKPRP | -0.279
25 | RRIRARPPRLPRPRPRPSPLPRP | 0.238

Row | Sequence | shrunken log2 fold change
26 | RRIRKRPPRLPRPRPRPKIAPRP | 0.35
27 | RRIRMRPPRLPRPRPRPPGQPRP | 1.24
28 | RRIRRRPPRLPRPRPRPCKLPRP | 0.00583
29 | RRIRVRPPRLPRPRPRPNQNPRP | -0.312
30 | RRIRARPPRLPRPRPRPSREPRP | 0.816
31 | RRIRLRPPRLPRPRPRPHCKPRP | -0.708
32 | RRIRPRPPRLPRPRPRPLNAPRP | -0.0965
33 | RRIRCRPPRLPRPRPRPGKRPRP | 0.244
34 | RRIRPRPPRLPRPRPRPERFPRP | -0.0264
35 | RRIRLRPPRLPRPRPRPPCHPRP | -0.178
36 | RRIRHRPPRLPRPRPRPPIVPRP | -0.252
37 | RRIRMRPPRLPRPRPRPQVVPRP | 0.0936
38 | RRIRERPPRLPRPRPRPHNHPRP | -0.734
39 | RRIRQRPPRLPRPRPRPYRFPRP | 0.0797
40 | RRIRNRPPRLPRPRPRPLIIPRP | -0.433
41 | RRIRWRPPRLPRPRPRPGQWPRP | 0.032
42 | RRIRIRPPRLPRPRPRPAKEPRP | -0.374
43 | RRIRKRPPRLPRPRPRPVMPPRP | 0.244
44 | RRIRYRPPRLPRPRPRPGIGPRP | -0.659
45 | RRIRMRPPRLPRPRPRPLLCPRP | 0.473
46 | RRIRKRPPRLPRPRPRPEAKPRP | 2.54
47 | RRIRSRPPRLPRPRPRPIAGPRP | -0.00669
48 | RRIRKRPPRLPRPRPRPSSYPRP | 0.0295
49 | RRIRPRPPRLPRPRPRPDDDPRP | -0.175
50 | RRIRIRPPRLPRPRPRPKKYPRP | -0.546

Row | Sequence | shrunken log2 fold change
51 | RRIRFRPPRLPRPRPRPSNHPRP | -0.681
52 | RRIRDRPPRLPRPRPRPDAFPRP | 0.297
53 | RRIRCRPPRLPRPRPRPGCQPRP | 0.00667
54 | RRIRARPPRLPRPRPRPHPHPRP | 0.322
55 | RRIRPRPPRLPRPRPRPYAYPRP | -0.192
56 | RRIRSRPPRLPRPRPRPVYLPRP | -0.519
57 | RRIRSRPPRLPRPRPRPSGVPRP | -0.0112
58 | RRIRHRPPRLPRPRPRPNAAPRP | 0.299
59 | RRIRARPPRLPRPRPRPYACPRP | -0.217
60 | RRIRFRPPRLPRPRPRPFMDPRP | -0.00928
61 | RRIRERPPRLPRPRPRPRVMPRP | -0.244
62 | RRIRSRPPRLPRPRPRPPKCPRP | -0.087
63 | RRIRHRPPRLPRPRPRPPAIPRP | 0.0959
64 | RRIRYRPPRLPRPRPRPMCLPRP | -0.0113
65 | RRIRARPPRLPRPRPRPYWIPRP | -0.556
66 | RRIRVRPPRLPRPRPRPTWLPRP | 0.318
67 | RRIRFRPPRLPRPRPRPKDPPRP | 0.216
68 | RRIRHRPPRLPRPRPRPCHTPRP | -0.0375
69 | RRIRDRPPRLPRPRPRPINIPRP | -0.282
70 | RRIRARPPRLPRPRPRPVSWPRP | 0.813
71 | RRIRLRPPRLPRPRPRPVPRPRP | 0.352
72 | RRIRLRPPRLPRPRPRPPETPRP | 0.0221
73 | RRIRIRPPRLPRPRPRPVGQPRP | -0.195
74 | RRIRWRPPRLPRPRPRPSSTPRP | 0.0549
75 | RRIRWRPPRLPRPRPRPCSVPRP | 0.0151
